Test results taken from patent publication US20040072333A1, “Method of purifying lantibiotics” (ImmuCell Corporation, priority 2002, published 2004).
Where no end group is shown, it is not given here.

What was measured:
trypsin [1] = assay: Soluble trypsin digestion at low pH and low trypsin to nisin ratio, HPLC; assay type: physicochemical; settings: below pH 5.50, nisin 11 mg/ml, trypsin 27.5 μg/ml (400:1 w/w), overnight, room temperature
Method: Peptide analysis has identified over 40 peptides that co-purify with nisin. All of these peptides have been identified as being products of Lactococcus fermentation. Since it was determined that nisin, at neutral to slightly alkaline pH and high trypsin to nisin ratios, is subject to proteolysis by trypsin, conditions were altered in an attempt to identify conditions under which trypsin would not degrade nisin but would degrade the peptide impurities in the nisin sample. Reaction mixtures containing nisin preparations, at a concentration of 11 mg/ml, and USP grade trypsin at a concentration of 27.5 μg/ml, were incubated overnight at room temperature (400:1 w/w). The pH of the mixtures ranged from 5.25 to 6.5.
To further optimize the conditions for removal of peptide impurities from nisin preparations by tryptic digestion, two liters of partially purified nisin was prepared at 4.55 mg/ml and incubated with 25 mg of USP grade trypsin for 16 hrs at 30° C. in 10 mM citric acid, pH 5.80. […] Moreover, subsequent removal of trypsin using a molecular weight cut off membrane yielded a recovery of 87.5% nisin and 0.38% trypsin.
For treatment of nisin with soluble trypsin, 2 liters of partially purified nisin from a fermentation product was prepared at 4.55 mg/ml in 10 mM citric acid buffer and 5 mM CaCl2. […] Nisin recovery and purity was determined by SDS-PAGE and HPLC. […]

trypsin [2] = assay: Tryptic digestion of nisin at pH 7.0, SDS-PAGE and HPLC; assay type: physicochemical; settings: pH 7.0, nisin to trypsin about 10:1 (w/w), 30° C., after 96 hr
Method: Nisin has two internal lysine residues that are potential targets of the proteolytic enzyme trypsin. To determine whether nisin could be digested by trypsin, a digestion reaction mixture was prepared where a nisin preparation, partially purified nisin from a fermentor run, was exposed to trypsin under conditions optimal for trypsin activity. These conditions included a reaction pH of 7.0 and a nisin to trypsin ratio of about 10:1 (w/w). Samples were incubated at 30° C. and aliqoutes were removed for analysis every 24 hr, beginning at time zero. […] After 96 hr of treatment, more than 90% of nisin was degraded.
Tryptic digestion of nisin (50 mg) was carried out in 50 ml of a buffer consisting of 25mM sodium acetate, 6 mM Tris acetate, 5 mM CaCl2, and pH 7.0. One ml of USP grade trypsin (5mg/ml) was added followed by incubation at 30° C. Thereafter, 500 μl aliqouts of trypsin were added at times 24, 48, 72, and 96 hours. At each time point in the experiment, 2 ml aliquots were removed for further analysis, of which […] was immediately plated on blood agar plates for determination of contamination. The remaining 1.8 ml was stored at −20° C. until the end of experiment for SDS-PAGE and HPLC analysis.

pepsin = assay: Protease digestion with pepsin; assay type: physicochemical
Method: (§1) Nisin is comparatively resistant to proteolysis by trypsin under the optimized conditions described above. To determine whether nisin is also resistant to other proteolytic enzymes under similar conditions, partially purified nisin was exposed to pepsin, thrombin, V8 protease (Endo Gluc), subtilisin, papain, thermolysin, or clostripain at pH 5.80. Pepsin exposure was also performed at pH 3.50. […] Pepsin at pH 5.80 and thrombin appeared ineffective against the impurities as well.
(§2) Digestion experiments using pepsin (EC3.4.23.1), thrombin (EC3.4.21.5), V8 protease (EC3.4.21.19), subtilisin (EC3.4.21.62), papain (EC3.4.22.2), thermolysin (EC3.4.24.27), and clostripain (EC3.4.22.8) were performed essentially as described for trypsin and at pH 5.80. Pepsin digestion was also performed at pH 3.50. For trypsin digestions using trypsin linked to a solid matrix (e.g. insoluble trypsin), 1.6 liters of partially purified nisin was prepared at 9.5 mg/ml in 10 mM Tris HCl and pH 5.50. Following the addition of 1.6 ml of TPCK-treated trypsin bound to beaded agarose (Sigma Chemical Company), the reaction mixture was incubated at 30° C. for 6 hours with frequent agitation. Insoluble trypsin was removed by centrifugation at approximately 4000×g for 7 minutes. The resultant supernatant containing nisin was prepared for HPLC analysis.

clostripain = target: T1, clostripain (Hathewaya histolytica, UniProt P09870); assay: Protease digestion with clostripain; assay type: physicochemical; settings: pH 5.80
T1 sequence (P09870 whole entry, looked up): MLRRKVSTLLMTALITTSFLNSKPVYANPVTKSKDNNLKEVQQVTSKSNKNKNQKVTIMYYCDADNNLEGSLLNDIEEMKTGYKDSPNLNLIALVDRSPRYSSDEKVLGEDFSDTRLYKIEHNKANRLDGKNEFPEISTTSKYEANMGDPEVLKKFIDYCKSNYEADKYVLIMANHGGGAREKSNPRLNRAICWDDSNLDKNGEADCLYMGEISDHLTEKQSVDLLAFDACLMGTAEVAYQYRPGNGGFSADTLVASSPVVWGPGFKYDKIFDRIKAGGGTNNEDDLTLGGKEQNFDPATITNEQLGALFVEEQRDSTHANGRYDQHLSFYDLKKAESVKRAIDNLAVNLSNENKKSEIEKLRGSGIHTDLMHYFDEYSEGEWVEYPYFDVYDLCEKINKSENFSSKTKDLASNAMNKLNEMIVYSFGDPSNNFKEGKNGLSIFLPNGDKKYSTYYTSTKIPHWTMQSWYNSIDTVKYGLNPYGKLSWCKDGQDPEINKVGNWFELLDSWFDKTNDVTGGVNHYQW
Method: as §1, §2

subtilisin = subtilisin (Bacillus licheniformis, UniProt P00780); assay: Protease digestion with subtilisin; assay type: physicochemical; settings: pH 5.80
Sequence of subtilisin (P00780 106-379): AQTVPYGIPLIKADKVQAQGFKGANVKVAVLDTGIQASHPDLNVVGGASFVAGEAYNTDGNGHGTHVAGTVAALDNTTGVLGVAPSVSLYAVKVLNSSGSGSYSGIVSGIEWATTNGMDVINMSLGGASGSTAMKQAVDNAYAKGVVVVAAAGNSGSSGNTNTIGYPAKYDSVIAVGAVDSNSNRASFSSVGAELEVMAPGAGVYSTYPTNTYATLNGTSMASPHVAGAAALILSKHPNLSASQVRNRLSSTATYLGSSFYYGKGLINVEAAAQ
Method: as §1, §2

papain = target: T2, papain (Carica papaya, UniProt P00784); assay: Protease digestion with papain; assay type: physicochemical; settings: pH 5.80
T2 sequence (P00784 134-345): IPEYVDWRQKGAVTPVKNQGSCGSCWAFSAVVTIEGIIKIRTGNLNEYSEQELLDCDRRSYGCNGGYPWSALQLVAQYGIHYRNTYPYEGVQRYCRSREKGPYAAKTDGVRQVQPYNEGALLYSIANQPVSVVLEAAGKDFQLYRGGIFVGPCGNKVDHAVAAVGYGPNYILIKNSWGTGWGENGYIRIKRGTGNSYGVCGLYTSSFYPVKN
Method: as §1, §2

thrombin = thrombin (Homo sapiens, UniProt P00734); assay: Protease digestion with thrombin; assay type: physicochemical; settings: pH 5.80
Method: as §1, §2

[3] = target: T3, TPCK treated insoluble trypsin (Bos taurus, UniProt P00760); assay: Insoluble trypsin (bound to beaded agarose) digestion, HPLC; assay type: physicochemical; settings: 9.55 mg/ml, 1.6 ml insoluble trypsin on agarose, 6 hr, 30° C., trypsin removed by centrifugation
T3 construct: purchased Sigma Chemical Company
T3 sequence (P00760 24-246): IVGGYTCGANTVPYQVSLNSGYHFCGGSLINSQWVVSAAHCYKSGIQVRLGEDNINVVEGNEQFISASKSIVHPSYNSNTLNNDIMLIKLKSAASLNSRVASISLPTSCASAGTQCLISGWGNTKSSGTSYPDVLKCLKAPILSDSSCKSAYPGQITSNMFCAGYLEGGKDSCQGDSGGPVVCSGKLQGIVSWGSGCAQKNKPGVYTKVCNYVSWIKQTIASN
Method: To determine whether insoluble trypsin treatment of nisin preparations was also effective in digestion of impurities, but not nisin itself, 1.6 liters of partially purified nisin prepared at 9.55 mg/ml was treated with 1.6 ml of TPCK treated insoluble trypsin bound to beaded agarose. After 6 hr of incubation at 30° C., and following removal of insoluble trypsin by centrifugation, the overall nisin recovery was about 90%.
as §2

V8 protease (Endo Gluc) = V8 protease (Endo Gluc) (Staphylococcus aureus, UniProt P0C1U8); assay: Protease digestion with V8 protease; assay type: physicochemical; settings: pH 5.80
Sequence of V8 protease (Endo Gluc) (P0C1U8 69-336): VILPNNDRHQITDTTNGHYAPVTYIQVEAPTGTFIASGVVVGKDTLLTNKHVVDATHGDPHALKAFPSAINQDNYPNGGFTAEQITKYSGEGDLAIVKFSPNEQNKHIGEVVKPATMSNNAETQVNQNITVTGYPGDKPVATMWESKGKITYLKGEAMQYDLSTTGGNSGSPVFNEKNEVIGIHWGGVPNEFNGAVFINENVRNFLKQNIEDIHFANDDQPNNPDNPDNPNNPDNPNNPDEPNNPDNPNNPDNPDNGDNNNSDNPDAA
Method: as §1, §2

thermolysin = thermolysin (Bacillus thermoproteolyticus, UniProt P00800); assay: Protease digestion with thermolysin; assay type: physicochemical; settings: pH 5.80
Sequence of thermolysin (P00800 233-548): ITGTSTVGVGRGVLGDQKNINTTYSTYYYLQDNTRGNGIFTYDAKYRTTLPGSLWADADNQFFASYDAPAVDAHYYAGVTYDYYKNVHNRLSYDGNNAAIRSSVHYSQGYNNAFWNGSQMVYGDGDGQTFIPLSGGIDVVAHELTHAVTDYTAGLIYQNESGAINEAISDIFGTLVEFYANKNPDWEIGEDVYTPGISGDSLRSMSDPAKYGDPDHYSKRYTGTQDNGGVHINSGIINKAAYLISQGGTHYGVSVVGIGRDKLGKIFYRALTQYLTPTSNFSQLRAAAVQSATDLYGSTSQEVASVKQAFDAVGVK
Method: as §1, §2

non-mastitic cows = assay: Mammary infusion, somatic cell count of quarter milk; assay type: in vivo
Method: Bovine intra-mammary infusion of impure nisin stimulates the production of high levels of somatic cells in milk as part of an inflammatory reaction.
Non-mastitic cows were treated with an infusion of vehicle, untreated, and trypsin-treated nisin (30 mg/10 ml) in the quarter after the 4th, 5th, and 6th milkings. The somatic cell count of the milk was recorded before, during, and after milking. High somatic cell counts were indicative of an inflammatory reaction. Statistical analysis was carried out using two sided t-Test comparisons with unequal variance.

[4] = test system: mastitic isolate of Streptococcus agalactiae (strain #20); assay: Antibacterial 96 well plate assay; assay type: cell-based; settings: bacterial growth read as absorbance
Method: To confirm that the biological activity of nisin is also unaltered, in vitro bactericidal activity assay was performed. Trypsin-treated nisin was analyzed for antibacterial activity against a mastitic isolate of Streptococcus agalactiae (strain #20) in a 96 well plate assay and bacterial growth was read as absorbance readings on an ELISA reader.
Nisin activity was determined using an antibacterial assay against a mastitic isolate of Streptococcus agalactiae (IC 20) in a 96 well plate assay. Test samples were serially diluted into M17 10% lactose medium and then mixed with an equal volume of 10^4 cfu/ml. After 66 hr of incubation at room temperature, the plates were read on an ELISA reader at 450 nm. Wells containing bacterial growth gave high absorbance readings. The data was analyzed using a four-parameter curve-fitting software.

## nisin (ITSISLCTPGCKTGALMGCNMKTATCHCSIHVSK; cysteine pairing not given here; also: lantibiotic nisin-A, modified residues not placed; UniProt P13068 24-57, looked up) [lysine-rich lantibiotic, polypeptide antimicrobial agent with lanthionine and β-methyl-lanthionine residues, used as food preservative]
Trypsin [1]
  hydrolysis of nisin by trypsin: minimal hydrolysis
Trypsin [2]
  nisin degraded by trypsin: more than 90%
pepsin; pH 3.50
  proteolytic digestion of nisin by pepsin: did not digest nisin
pepsin; pH 5.80
  proteolytic digestion of nisin by pepsin: resistant
clostripain
  proteolytic digestion of nisin by clostripain: resistant
subtilisin
  proteolytic digestion of nisin by subtilisin: resistant
papain
  proteolytic digestion of nisin by papain: resistant
thrombin
  proteolytic digestion of nisin by thrombin: resistant
[3]
  overall nisin recovery after insoluble trypsin incubation: about 90%
V8 protease (Endo Gluc)
  proteolytic digestion of nisin by V8 protease: resistant
thermolysin
  proteolytic digestion of nisin by thermolysin: resistant

## trypsin/nisin: nisin preparation purified by selective trypsin digestion of peptide impurities (ITSISLCTPGCKTGALMGCNMKTATCHCSIHVSK; also: lantibiotic nisin-A: lanthionine thioether rings, Dha/Dhb, positions not given here; UniProt P13068 24-57, looked up)
non-mastitic cows; intra-mammary infusion of 30 mg, non-mastitic cows
  somatic cell count of milk from treated quarters (inflammatory reaction), summary in words: much lower and is not statistically different from quarters treated with buffer alone
non-mastitic cows; milking 1 (before treatments; infusions 30 mg/10 ml given after 4th, 5th, 6th milkings)
  Somatic Cell Count of Quarter Milk, mean of group: 10 X1000
non-mastitic cows; milking 2 (before treatments)
  Somatic Cell Count of Quarter Milk, mean of group: 22 X1000
non-mastitic cows; milking 3 (before treatments)
  Somatic Cell Count of Quarter Milk, mean of group: 23 X1000
non-mastitic cows; milking 4 (before first treatment)
  Somatic Cell Count of Quarter Milk, mean of group: 21 X1000
non-mastitic cows; milking 5, infusions 30 mg/10 ml after 4th, 5th, 6th milkings
  Somatic Cell Count of Quarter Milk, mean of group: 54 X1000
non-mastitic cows; milking 6
  Somatic Cell Count of Quarter Milk, mean of group: 187 X1000
non-mastitic cows; milking 7
  Somatic Cell Count of Quarter Milk, mean of group: 300 X1000
non-mastitic cows; milking 8
  Somatic Cell Count of Quarter Milk, mean of group: 148 X1000
non-mastitic cows; milking 9
  Somatic Cell Count of Quarter Milk, mean of group: 106 X1000
non-mastitic cows; milking 10
  Somatic Cell Count of Quarter Milk, mean of group: 82 X1000
non-mastitic cows; milking 11
  Somatic Cell Count of Quarter Milk, mean of group: 103 X1000
non-mastitic cows; milking 12
  Somatic Cell Count of Quarter Milk, mean of group: 81 X1000
non-mastitic cows; milking 13
  Somatic Cell Count of Quarter Milk, mean of group: 60 X1000
non-mastitic cows; milking 14
  Somatic Cell Count of Quarter Milk, mean of group: 36 X1000
non-mastitic cows; milking 15
  Somatic Cell Count of Quarter Milk, mean of group: 53 X1000
non-mastitic cows; milking 16
  Somatic Cell Count of Quarter Milk, mean of group: 37 X1000
non-mastitic cows; milking 17
  Somatic Cell Count of Quarter Milk, mean of group: 40 X1000
non-mastitic cows; milking 18
  Somatic Cell Count of Quarter Milk, mean of group: 41 X1000
[4]
  antimicrobial activity compared with control, untreated nisin: not substantially different
